Tests used:
[1] = molecular target: T1, human VEGFR-1 (FLT-1) expressed on porcine aortic endothelial cells (PAE/FLT-1) (human), P17948; assay: competitive cell binding on PAE/FLT-1 cells, 125I-VEGF165 as radioligand; settings: remark: other sources report otherwise
T1 chain: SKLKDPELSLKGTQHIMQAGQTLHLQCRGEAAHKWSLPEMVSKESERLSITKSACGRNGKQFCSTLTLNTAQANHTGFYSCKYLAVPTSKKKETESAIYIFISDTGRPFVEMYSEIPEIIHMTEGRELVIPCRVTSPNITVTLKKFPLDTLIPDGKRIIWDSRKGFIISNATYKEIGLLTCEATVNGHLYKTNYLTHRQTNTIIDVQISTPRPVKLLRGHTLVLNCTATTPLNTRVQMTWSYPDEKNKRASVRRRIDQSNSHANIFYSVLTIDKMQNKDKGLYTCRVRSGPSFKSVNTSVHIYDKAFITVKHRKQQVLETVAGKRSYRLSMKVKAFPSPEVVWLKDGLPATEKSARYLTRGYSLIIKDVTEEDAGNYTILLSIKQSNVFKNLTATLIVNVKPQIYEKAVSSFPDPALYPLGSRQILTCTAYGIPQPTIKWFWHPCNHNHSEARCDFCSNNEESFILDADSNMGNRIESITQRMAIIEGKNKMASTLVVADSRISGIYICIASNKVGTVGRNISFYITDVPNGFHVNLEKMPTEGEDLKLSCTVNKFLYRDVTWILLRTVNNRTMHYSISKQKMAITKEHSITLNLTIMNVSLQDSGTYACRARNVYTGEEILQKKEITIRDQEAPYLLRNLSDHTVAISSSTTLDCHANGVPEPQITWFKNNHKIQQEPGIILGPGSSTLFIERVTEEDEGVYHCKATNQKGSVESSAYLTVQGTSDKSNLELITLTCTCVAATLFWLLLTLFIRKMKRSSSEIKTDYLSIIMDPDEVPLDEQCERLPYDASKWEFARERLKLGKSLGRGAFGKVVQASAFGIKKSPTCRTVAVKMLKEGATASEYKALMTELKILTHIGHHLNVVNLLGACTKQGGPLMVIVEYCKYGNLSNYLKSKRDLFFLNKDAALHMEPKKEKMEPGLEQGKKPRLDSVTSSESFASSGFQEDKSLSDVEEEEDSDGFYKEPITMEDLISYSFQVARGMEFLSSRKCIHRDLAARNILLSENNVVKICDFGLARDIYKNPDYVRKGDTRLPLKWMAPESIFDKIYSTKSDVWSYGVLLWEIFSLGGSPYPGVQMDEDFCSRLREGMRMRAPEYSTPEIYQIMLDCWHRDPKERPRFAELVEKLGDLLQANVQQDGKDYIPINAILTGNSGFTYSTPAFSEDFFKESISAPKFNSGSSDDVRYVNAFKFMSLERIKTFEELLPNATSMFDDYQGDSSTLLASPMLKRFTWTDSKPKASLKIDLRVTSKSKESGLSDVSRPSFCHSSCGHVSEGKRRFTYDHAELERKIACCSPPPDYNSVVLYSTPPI

[2] = molecular target: T2, human VEGFR-2 (KDR) expressed on porcine aortic endothelial cells (PAE/KDR) (human, UniProt P35968 20-1356); assay: competitive cell binding on PAE/KDR cells, 125I-VEGF165 as radioligand
T2 construct: whole, on cells; also called Flk-1/KDR; PAE/KDR cells
Method: (§1) The detailed procedure of competitive cell binding assay has been described herein. VEGFR-1 and VEGFR-2 binding affinity of VEGF₁₂₁, VEGFDEE, and the DOTA conjugates was evaluated by PAE/FLT-1 and PAE/KDR cell binding assays using ¹²⁵I-VEGF₁₆₅ (VEGF₁₆₅ protein (SEQ ID No: 4)) as the radioligand. The best-fit IC₅₀ values were calculated by fitting the data by nonlinear regression using GraphPad Prism (GraphPad Software, Inc.). Experiments were carried out with triplicate samples.

[3] = molecular target: T2, human VEGFR-2 (KDR) expressed on …; assay: competitive cell binding on PAE/KDR cells, 125I-VEGF165 as radioligand (Example 2)
[4] = molecular target: T2, human VEGFR-2 (KDR) expressed on …; assay: cell-based or functional assay
[5] = molecular target: T3, soluble VEGFR1D1-D6 (sVEGFR1) (Homo sapiens (Human), UniProt P17948 27-687); assay: plate-coated sVEGFR1, competition with 125I-VEGF165
T3 construct: Coated on 96-well plates
Method: (§2) Porcine aortic endothelial cells (PAE-KDR cells) stably transfected to express human VEGFR2 (KDR) and porcine aortic endothelial cells (PAE cells) not expressing VEGFR1 and VEGFR2 were cultured in Ham's F-12 medium containing 10% fetal bovine serum (Sigma-Aldrich, Saint Louis, Mo.). Using ¹²⁵I-VEGF₁₆₅ as the radioligand, receptor-binding affinity of VEGF₁₂₁ and VEGFNLS for VEGFR2 was performed as described elsewhere for both PAE-KDR and PAE cells (J Med. Chem. 2005; 48:1098-1106, which is include herein by reference). […] Serially diluted VEGF₁₂₁ or VEGFNLS were then added to compete with the radioligand ¹²⁵I-VEGF₁₆₅. After 2 h incubation at room temperature, the plates were washed and bound ¹²⁵I-VEGF₁₆₅/sVEGFR1 complex was dissociated by acidified 0.1% SDS solution, the eluent was collected and the radioactivity was measured by a gamma counter (Cobra II Auto-Gamma; Perkin-Elmer, Wellesley, Mass.). The best-fit 50% inhibitory concentration (IC₅₀) values were calculated by fitting the data by nonlinear regression using GraphPad Prism 4.0 (GraphPad Software, Inc., San Diego, Calif.). Experiments were performed twice with triplicate samples.

[6] = molecular target: T2, human VEGFR-2 (KDR) expressed on …; assay: competitive cell binding on PAE-KDR cells, 125I-VEGF165 as radioligand
Method: as §2

[7] = molecular target: T2, human VEGFR-2 (KDR) expressed on …; assay: competitive cell binding on PAE/KDR cells
Method: as §1
(§3) Two proteins were prepared for this study: VEGF₁₂₁ and the triple mutant at the 63, 64, and 67 positions (VEGFDEE) (FIG. 17). The His-tag containing proteins were purified to homogeneity. Cell binding assay was then carried out to determine the VEGFR-1 and VEGFR-2 binding affinity (FIGS. 18a and 18b).

[8] = molecular target: T4, human VEGFR-1 (FLT-1) expressed on porcine aortic endothelial cells (PAE/FLT-1) (human, UniProt P17948 27-1338); assay: competitive cell binding on PAE/FLT-1 cells
T4 construct: whole, on cells; also called PAE/VEGFR-1 cells; PAE/FLT-1 cells
Method: as §1, §3

[9] = molecular target: T2, human VEGFR-2 (KDR) expressed on …; assay: competitive cell binding on PAE/KDR against PAE/FLT-1 cells
Method: as §1, §3

[10] = molecular target: T4, human VEGFR-1 (FLT-1) expressed on …; assay: competitive cell binding on PAE/FLT-1 cells, 125I-VEGF165 as radioligand
Method: as §1, §3

T2 sequence (P35968 20-1356): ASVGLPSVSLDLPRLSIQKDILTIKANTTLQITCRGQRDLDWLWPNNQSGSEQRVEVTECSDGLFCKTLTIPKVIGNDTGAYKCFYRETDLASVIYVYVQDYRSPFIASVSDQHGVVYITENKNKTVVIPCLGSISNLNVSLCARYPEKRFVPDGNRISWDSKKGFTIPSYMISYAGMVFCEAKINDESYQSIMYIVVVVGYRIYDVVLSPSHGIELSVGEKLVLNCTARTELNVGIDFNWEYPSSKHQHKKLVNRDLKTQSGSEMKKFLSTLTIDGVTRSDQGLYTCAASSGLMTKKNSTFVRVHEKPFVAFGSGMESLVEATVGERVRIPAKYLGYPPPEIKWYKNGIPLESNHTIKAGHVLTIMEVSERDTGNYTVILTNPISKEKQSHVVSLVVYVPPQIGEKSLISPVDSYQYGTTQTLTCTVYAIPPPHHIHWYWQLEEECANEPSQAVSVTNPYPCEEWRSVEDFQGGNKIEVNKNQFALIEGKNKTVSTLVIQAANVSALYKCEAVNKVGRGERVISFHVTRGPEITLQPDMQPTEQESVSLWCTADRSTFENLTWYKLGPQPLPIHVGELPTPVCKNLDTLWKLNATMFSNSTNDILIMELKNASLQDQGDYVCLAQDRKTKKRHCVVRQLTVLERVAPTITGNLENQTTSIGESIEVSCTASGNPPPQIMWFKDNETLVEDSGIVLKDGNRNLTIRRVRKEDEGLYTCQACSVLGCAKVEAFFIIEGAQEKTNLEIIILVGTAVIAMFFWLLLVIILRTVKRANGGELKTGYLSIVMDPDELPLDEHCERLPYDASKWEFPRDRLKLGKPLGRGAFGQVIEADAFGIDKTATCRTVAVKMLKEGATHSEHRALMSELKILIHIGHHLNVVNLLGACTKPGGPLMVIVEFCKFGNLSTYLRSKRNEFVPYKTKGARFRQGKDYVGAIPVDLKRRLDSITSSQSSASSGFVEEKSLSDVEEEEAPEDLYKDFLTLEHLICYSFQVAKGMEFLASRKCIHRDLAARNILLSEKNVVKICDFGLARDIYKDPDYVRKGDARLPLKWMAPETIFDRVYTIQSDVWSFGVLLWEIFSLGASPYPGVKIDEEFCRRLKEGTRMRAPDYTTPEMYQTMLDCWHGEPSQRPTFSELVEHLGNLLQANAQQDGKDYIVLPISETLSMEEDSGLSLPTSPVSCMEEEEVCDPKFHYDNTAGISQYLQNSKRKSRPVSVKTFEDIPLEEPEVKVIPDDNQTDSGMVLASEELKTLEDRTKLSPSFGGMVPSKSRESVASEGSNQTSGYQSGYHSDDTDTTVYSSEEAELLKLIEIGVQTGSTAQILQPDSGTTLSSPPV

B1: VEGF121 protein (Examples 3 and 5: His-tag containing, expressed from pRSF-Duet1), P15692 207-395 (ligand, not shown: small tags and cut ends)
chain: APMAEGGGQNHHEVVKFMDVYQRSYCHPIETLVDIFQEYPDEIEYIFKPSCVPLMRCGGCCNDEGLECVPTEESNITMQIMRIKPHQGQHIGEMSFLQHNKCECRPKKDRARQEKCDKPRR
- IC50 [1]: 4.2 nM

B2: VEGF121 protein (Examples 1 and 2: expressed from pET-32, tag removed with enterokinase) (ligand)
chain: APMAEGGGQNHHEVVKFMDVYQRSYCHPIETLVDIFQEYPDEIEYIFKPSCVPLMRCGGCCNDEGLECVPTEESNITMQIMRIKPHQGQHIGEMSFLQHNKCECRPKKDRARQEKCDKPRR
notes: also called unlabeled VEGF121; naive VEGF121
- IC50 [2]: 1.02 nM
- IC50 [3]: 1.11 nM

B3: VEGF121 protein (Examples 3 and 5: His-tag containing, expressed from pRSF-Duet1) (ligand)
chain: APMAEGGGQNHHEVVKFMDVYQRSYCHPIETLVDIFQEYPDEIEYIFKPSCVPLMRCGGCCNDEGLECVPTEESNITMQIMRIKPHQGQHIGEMSFLQHNKCECRPKKDRARQEKCDKPRR
notes: No tag removal is described; also called wild type VEGF121; wild-type VEGF121; not shown: His-tag
- functional assay using PAE/KDR cells (FIG. 18e) [4]: > 5 nM
- phosphorylated VEGFR-2 (Western blot, PAE/KDR cells) [4]: > 10 nM
- IC50 [5]: 4 nM
- IC50 [6]: 2.9 nM

B4: DOTA-VEGF121 (Example 5) (ligand)
chain: APMAEGGGQNHHEVVKFMDVYQRSYCHPIETLVDIFQEYPDEIEYIFKPSCVPLMRCGGCCNDEGLECVPTEESNITMQIMRIKPHQGQHIGEMSFLQHNKCECRPKKDRARQEKCDKPRR
modifications: DOTA conjugated; 2.1±0.1 DOTA molecules per monomeric VEGF121; sites not stated
notes: DOTA conjugate of m3; not shown: His-tag
- functional assay using PAE/KDR cells (FIG. 18e) [4]: > 5 nM
- phosphorylated VEGFR-2 (Western blot, PAE/KDR cells) [4]: > 10 nM
- IC50 [2]: 5 nM

B5: DOTA-VEGF121 (Examples 1 and 2) (ligand)
chain: APMAEGGGQNHHEVVKFMDVYQRSYCHPIETLVDIFQEYPDEIEYIFKPSCVPLMRCGGCCNDEGLECVPTEESNITMQIMRIKPHQGQHIGEMSFLQHNKCECRPKKDRARQEKCDKPRR
modifications: DOTA conjugated to lysine residues and/or N-terminal amine groups; 4.33±0.24 DOTA per VEGF121
notes: The conjugation sites are not mapped
- IC50 [2]: 1.66 nM
- IC50 [3]: 1.59 nM

B6: VEGFR-2 specific mutant VEGFDEE (D63AE64AE67A mutant of VEGF121) (ligand)
chain: MAPMAEGGGQNHHEVVKFMDVYQRSYCHPIETLVDIFQEYPDEIEYIFKPSCVPLMRCGGCCNAAGLACVPTEESNITMQIMRIKPHQGQHIGEMSFLQHNKCECRPKKDRARQEKCDKPRRGS
notes: also called VEGF121-DEE Mutant; not shown: His-tag
- functional assay using PAE/KDR cells (FIG. 18e) [4]: > 5 nM
- phosphorylated VEGFR-2 (Western blot, PAE/KDR cells) [4]: > 10 nM
- fold lower binding affinity against VEGF121 [7]: 4 fold
- fold lower binding against VEGF121 [8]: ~20 fold
- fold higher binding affinity against VEGFR-1 [9]: ~7 fold
- IC50 [2]: 11.7 nM
- IC50 [10]: 78.1 nM

B7: DOTA-VEGFDEE (ligand)
chain: MAPMAEGGGQNHHEVVKFMDVYQRSYCHPIETLVDIFQEYPDEIEYIFKPSCVPLMRCGGCCNAAGLACVPTEESNITMQIMRIKPHQGQHIGEMSFLQHNKCECRPKKDRARQEKCDKPRRGS
modifications: DOTA conjugated; 2.2±0.1 DOTA molecules per monomeric VEGFDEE; sites not stated
notes: DOTA conjugate of m4; not shown: His-tag
- functional assay using PAE/KDR cells (FIG. 18e) [4]: > 5 nM
- phosphorylated VEGFR-2 (Western blot, PAE/KDR cells) [4]: > 10 nM
- IC50 [2]: 10.3 nM

— patent publication US20080031815A1 (published 2008)
